B1: Val-Leu-Pro-Pro (VLPP) (peptide)
peptide: VLPP
B2: Ile-Leu-Pro-Pro (ILPP) (peptide)
peptide: ILPP

Molecular target: T1, Angiotensin converting enzyme (ACE)
T1 sequence (F1RRW5 whole entry, species assumed, looked up): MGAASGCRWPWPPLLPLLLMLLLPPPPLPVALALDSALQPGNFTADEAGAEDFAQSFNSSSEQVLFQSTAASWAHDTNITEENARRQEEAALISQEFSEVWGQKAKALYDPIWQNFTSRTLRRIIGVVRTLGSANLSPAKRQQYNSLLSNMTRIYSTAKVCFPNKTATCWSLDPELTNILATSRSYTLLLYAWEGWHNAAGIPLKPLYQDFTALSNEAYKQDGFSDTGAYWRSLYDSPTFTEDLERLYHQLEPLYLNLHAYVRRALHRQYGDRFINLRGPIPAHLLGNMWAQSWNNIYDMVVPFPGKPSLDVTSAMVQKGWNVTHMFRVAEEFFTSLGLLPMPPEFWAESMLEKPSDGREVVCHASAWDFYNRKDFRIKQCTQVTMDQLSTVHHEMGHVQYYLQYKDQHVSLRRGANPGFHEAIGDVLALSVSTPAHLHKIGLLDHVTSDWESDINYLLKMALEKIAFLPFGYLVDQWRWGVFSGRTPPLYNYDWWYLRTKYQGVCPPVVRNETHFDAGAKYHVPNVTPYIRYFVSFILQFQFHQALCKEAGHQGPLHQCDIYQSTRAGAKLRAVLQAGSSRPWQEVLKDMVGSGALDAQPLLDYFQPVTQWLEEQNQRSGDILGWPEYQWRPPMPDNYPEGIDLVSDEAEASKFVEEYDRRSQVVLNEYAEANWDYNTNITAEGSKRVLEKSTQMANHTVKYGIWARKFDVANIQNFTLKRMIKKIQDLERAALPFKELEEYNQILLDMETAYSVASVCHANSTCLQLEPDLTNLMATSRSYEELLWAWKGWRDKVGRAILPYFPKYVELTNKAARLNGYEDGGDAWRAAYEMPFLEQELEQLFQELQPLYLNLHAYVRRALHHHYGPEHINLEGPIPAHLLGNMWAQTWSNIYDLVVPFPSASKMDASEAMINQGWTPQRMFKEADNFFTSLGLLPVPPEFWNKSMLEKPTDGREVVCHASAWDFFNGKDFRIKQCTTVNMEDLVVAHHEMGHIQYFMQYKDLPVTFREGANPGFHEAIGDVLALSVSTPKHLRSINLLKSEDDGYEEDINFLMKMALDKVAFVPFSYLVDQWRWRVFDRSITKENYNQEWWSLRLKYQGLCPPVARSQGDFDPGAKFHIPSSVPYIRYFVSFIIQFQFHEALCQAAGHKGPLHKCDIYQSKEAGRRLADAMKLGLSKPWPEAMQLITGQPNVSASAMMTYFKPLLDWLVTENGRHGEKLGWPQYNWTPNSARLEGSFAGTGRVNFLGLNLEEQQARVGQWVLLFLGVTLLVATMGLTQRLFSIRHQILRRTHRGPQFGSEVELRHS
Experiment: cell-based or functional assay

Row | Binder | ACE inhibitory activity (IC50) [µM]
1 | B1 | 97
2 | B2 | 172

Reference: patent publication US7335722 (FOOD INDUSTRY RESEARCH AND DEVELOPMENT INSTITUTE, dated 2008)
